How the values were obtained:
Type in all cases: physicochemical
[1] = Particle size, particle size distribution and zeta potential of micelles by dynamic light scattering; details: prodrug micelles in aqueous solution, 25° C.; for PDI / Size(nm): DLS
Experimental: The particle size, particle size distribution and zeta potential of micelles were measured by Zetasizer Nano ZS Dynamic light scattering (DLS) potentiometer (Malvern, UK) at 25° C. and 90° scattering angle.

[2] = Release performance of prodrug (dialysis, HPLC determination of paclitaxel); details: for time to almost complete release of paclitaxel: 37° C.; for change of release rate after the addition of GSH: with GSH (10 mM) versus without
Experimental: The testing instrument was Agilent 1260 series (USA), with a reversed phase C18 column (4.6×100 mm). The mobile phase was acetonitrile/water (80/20), the column temperature was 30° C., the flow rate was 1.0 mL/min, and the detection wavelength was 227 nm.
Firstly, HPLC was used to detect the response of PTX in this mobile phase. After accurately weighing a certain amount of paclitaxel, PTX was prepared with the mixed solvent of acetonitrile and ultrapure water (9/1, v/v) into a series of standard solutions at different concentrations. Linear regression was performed between the measured response peak area A and concentration C, to obtain the standard curve of the PTX solution. The curve equation was fitted, and the concentration-peak area curve equation of PTX was Y=25.025X, with a correlation coefficient of R^2=0.9996.
3 mL of drug-loaded micelles were loaded into a dialysis bag (MWCO=1000), and the release medium was PBS containing 30% ethanol (V/V) (pH 5.0 or 7.4). The release of paclitaxel from self-assembled nanoparticles of prodrug was investigated with or without the addition of glutathione (10 mM GSH). The specific procedures are as follows: 3 mL of prodrug nanoparticle solution (1 mg/mL) was placed into a dialysis bag (MW1000) and added to 30 mL of the release media, and then the entire system was transferred into a constant temperature shaker (37° C., 110 rpm). 1 mL of release solution was collected at different pre-determined time points, taking 3 parallel samples at each time point. After sampling, the same volume of pure PBS or PBS containing 10 mM GSH (10 Mm) was supplemented, and the drug concentration was determined by HPLC. The cumulative release was calculated using the following formula:
[formula] • wherein R is the cumulative release amount; Vi is the total volume of the solution before the i-th sampling; Ci is the total concentration of the solution before the i-th sampling; Vsj is the jth sampling volume; Cj is the total concentration of the solution before the jth sampling, i=2, 3, 4 . . .; j=i−1.

[3] = Study on the stability of micelles in vitro (PBS or added glutathione, DLS); details: GSH added, 37° C. shaker, DLS (FIG. 5)
Experimental: In order to study the stability of micelles in vitro, the micellar solution was dropped into PBS simulating the human physiological environment, or a certain amount of glutathione was added. All samples were placed in a 37° C. constant temperature shaker (110 rpm), and the stability of micelles was studied by dynamic light scattering at the pre-determined time points.

[4] = Transmission electron microscopy of micellar morphology; details: TEM (FIG. 3)
Experimental: A small amount of micellar solution fully mixed under ultrasonic was added dropwise onto the copper mesh coated with Formvar film, and then dyed with 1% (w/v) phosphotungstic acid staining solution for 3 min. Subsequently, the excess liquid was absorbed with filter paper, and the copper mesh was allowed to dry naturally. Then, Tecnai G2 F20 S-TWIN transmission electron microscopy (FEI Corporation, USA) was used to observe the micellar morphology, and the acceleration voltage was 75 KV.

[5] = acidic pH 5.0, with GSH (10 mM)
[6] = neutral pH 7.4, with GSH (10 mM)

Row | Substance | Zeta Potential(mV) [1] [mV] | PDI [1] | Size(nm) [1] [nm] | time to almost complete release of paclitaxel [2, 5] [h] | time to almost complete release of paclitaxel [2, 6] [h] | change of release rate after the addition of GSH [2] | micelle state (particle size and PDI) after addition of glutathione [3] | micelle morphology and dispersion [4]
1 | paclitaxel-adipic acid-polyethylene glycol [PAP] | −13.2 ± 0.6 | 0.103 ± 0.037 | 109.43 ± 0.94 | – | – | – | – | –
2 | paclitaxel-adipic acid-polyethylene glycol-RGD peptide [PAPR] | −9.91 ± 0.3 | 0.110 ± 0.002 | 117.93 ± 5.57 | – | – | – | – | –
3 | paclitaxel-dithiodipropionic acid-polyethylene glycol [PDP] | −18.1 ± 0.8 | 0.166 ± 0.003 | 129.07 ± 1.76 | 144 | 120 | significantly accelerated | significantly disintegrated | –
4 | paclitaxel-dithiodipropionic acid-polyethylene glycol-RGD Peptide [PDPR] | −7.38 ± 0.8 | 0.065 ± 0.012 | 114.63 ± 1.53 | 144 | 120 | significantly accelerated | significantly disintegrated | uniform particle size and dispersion
